Experimental data: the supplement of paper PMC10567573

B1: ZNF8 (parent)
chain: KPYTCSVCGKSFSRTTCLFLHLRT

Variants of: B1
Experiment: protein stability index of a GFP-peptide fusion (GPS, HEK-293T) (PSI 1-6); higher = more stable
Conditions: c terminus: a fixed tail appended
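Also: lentivirally expressed fusions sorted by FACS into six bins by GFP to DsRed ratio, PSI derived from sequencing read proportions per bin multiplied by bin number.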

Row | Variant | protein stability index
1 | QPYTCSVCGKSFSRTTCLFLHLRT [K1Q] | 2.39
2 | RPYTCSVCGKSFSRTTCLFLHLRT [K1R] | 2.26
3 | SPYTCSVCGKSFSRTTCLFLHLRT [K1S] | 1.93
4 | TPYTCSVCGKSFSRTTCLFLHLRT [K1T] | 1.67
5 | VPYTCSVCGKSFSRTTCLFLHLRT [K1V] | 1.72
6 | WPYTCSVCGKSFSRTTCLFLHLRT [K1W] | 1.74
7 | YPYTCSVCGKSFSRTTCLFLHLRT [K1Y] | 2.24
8 | KAYTCSVCGKSFSRTTCLFLHLRT [P2A] | 2.24
9 | KCYTCSVCGKSFSRTTCLFLHLRT [P2C] | 1.86
10 | KDYTCSVCGKSFSRTTCLFLHLRT [P2D] | 2.33
11 | KEYTCSVCGKSFSRTTCLFLHLRT [P2E] | 2.55
12 | KFYTCSVCGKSFSRTTCLFLHLRT [P2F] | 1.48
13 | KGYTCSVCGKSFSRTTCLFLHLRT [P2G] | 3
14 | KHYTCSVCGKSFSRTTCLFLHLRT [P2H] | 2.5
15 | KIYTCSVCGKSFSRTTCLFLHLRT [P2I] | 2.08
16 | KKYTCSVCGKSFSRTTCLFLHLRT [P2K] | 2.05
17 | KLYTCSVCGKSFSRTTCLFLHLRT [P2L] | 1.74
18 | KMYTCSVCGKSFSRTTCLFLHLRT [P2M] | 1.98
19 | KNYTCSVCGKSFSRTTCLFLHLRT [P2N] | 2.14
20 | KQYTCSVCGKSFSRTTCLFLHLRT [P2Q] | 1.87
21 | KRYTCSVCGKSFSRTTCLFLHLRT [P2R] | 1.77
22 | KSYTCSVCGKSFSRTTCLFLHLRT [P2S] | 2.72
23 | KTYTCSVCGKSFSRTTCLFLHLRT [P2T] | 2.19
24 | KVYTCSVCGKSFSRTTCLFLHLRT [P2V] | 2.46

Row | Variant | protein stability index
25 | KWYTCSVCGKSFSRTTCLFLHLRT [P2W] | 2.42
26 | KYYTCSVCGKSFSRTTCLFLHLRT [P2Y] | 2.09
27 | KPATCSVCGKSFSRTTCLFLHLRT [Y3A] | 1.63
28 | KPCTCSVCGKSFSRTTCLFLHLRT [Y3C] | 1.7
29 | KPDTCSVCGKSFSRTTCLFLHLRT [Y3D] | 2.07
30 | KPETCSVCGKSFSRTTCLFLHLRT [Y3E] | 1.76
31 | KPFTCSVCGKSFSRTTCLFLHLRT [Y3F] | 1.4
32 | KPGTCSVCGKSFSRTTCLFLHLRT [Y3G] | 1.61
33 | KPHTCSVCGKSFSRTTCLFLHLRT [Y3H] | 2.46
34 | KPITCSVCGKSFSRTTCLFLHLRT [Y3I] | 1.7
35 | KPKTCSVCGKSFSRTTCLFLHLRT [Y3K] | 1.91
36 | KPLTCSVCGKSFSRTTCLFLHLRT [Y3L] | 2.19
37 | KPMTCSVCGKSFSRTTCLFLHLRT [Y3M] | 2.3
38 | KPNTCSVCGKSFSRTTCLFLHLRT [Y3N] | 1.71
39 | KPPTCSVCGKSFSRTTCLFLHLRT [Y3P] | 1.69
40 | KPQTCSVCGKSFSRTTCLFLHLRT [Y3Q] | 2.01
41 | KPRTCSVCGKSFSRTTCLFLHLRT [Y3R] | 1.76
42 | KPSTCSVCGKSFSRTTCLFLHLRT [Y3S] | 1.74
43 | KPTTCSVCGKSFSRTTCLFLHLRT [Y3T] | 2.4
44 | KPVTCSVCGKSFSRTTCLFLHLRT [Y3V] | 2.1
45 | KPWTCSVCGKSFSRTTCLFLHLRT [Y3W] | 1.7
46 | KPYACSVCGKSFSRTTCLFLHLRT [T4A] | 1.43
47 | KPYCCSVCGKSFSRTTCLFLHLRT [T4C] | 2.1
48 | KPYDCSVCGKSFSRTTCLFLHLRT [T4D] | 2.75

Row | Variant | protein stability index
49 | KPYECSVCGKSFSRTTCLFLHLRT [T4E] | 1.77
50 | KPYFCSVCGKSFSRTTCLFLHLRT [T4F] | 1.9
51 | KPYGCSVCGKSFSRTTCLFLHLRT [T4G] | 2.51
52 | KPYHCSVCGKSFSRTTCLFLHLRT [T4H] | 1.8
53 | KPYICSVCGKSFSRTTCLFLHLRT [T4I] | 2.36
54 | KPYKCSVCGKSFSRTTCLFLHLRT [T4K] | 2.04
55 | KPYLCSVCGKSFSRTTCLFLHLRT [T4L] | 2.19
56 | KPYMCSVCGKSFSRTTCLFLHLRT [T4M] | 1.83
57 | KPYNCSVCGKSFSRTTCLFLHLRT [T4N] | 1.67
58 | KPYPCSVCGKSFSRTTCLFLHLRT [T4P] | 1.86
59 | KPYQCSVCGKSFSRTTCLFLHLRT [T4Q] | 1.49
60 | KPYRCSVCGKSFSRTTCLFLHLRT [T4R] | 2.4
61 | KPYSCSVCGKSFSRTTCLFLHLRT [T4S] | 1.48
62 | KPYVCSVCGKSFSRTTCLFLHLRT [T4V] | 1.69
63 | KPYWCSVCGKSFSRTTCLFLHLRT [T4W] | 1.62
64 | KPYYCSVCGKSFSRTTCLFLHLRT [T4Y] | 1.63
65 | KPYTASVCGKSFSRTTCLFLHLRT [C5A] | 1.97
66 | KPYTDSVCGKSFSRTTCLFLHLRT [C5D] | 1.96
67 | KPYTESVCGKSFSRTTCLFLHLRT [C5E] | 3.3
68 | KPYTFSVCGKSFSRTTCLFLHLRT [C5F] | 2.46
69 | KPYTGSVCGKSFSRTTCLFLHLRT [C5G] | 3.6
70 | KPYTISVCGKSFSRTTCLFLHLRT [C5I] | 3.17
71 | KPYTKSVCGKSFSRTTCLFLHLRT [C5K] | 3.15
72 | KPYTLSVCGKSFSRTTCLFLHLRT [C5L] | 3.52

Row | Variant | protein stability index
73 | KPYTMSVCGKSFSRTTCLFLHLRT [C5M] | 2.18
74 | KPYTNSVCGKSFSRTTCLFLHLRT [C5N] | 2.43
75 | KPYTPSVCGKSFSRTTCLFLHLRT [C5P] | 2.38
76 | KPYTQSVCGKSFSRTTCLFLHLRT [C5Q] | 2.29
77 | KPYTSSVCGKSFSRTTCLFLHLRT [C5S] | 1.56
78 | KPYTTSVCGKSFSRTTCLFLHLRT [C5T] | 3.19
79 | KPYTWSVCGKSFSRTTCLFLHLRT [C5W] | 2.06
80 | KPYTYSVCGKSFSRTTCLFLHLRT [C5Y] | 2.21
81 | KPYTCAVCGKSFSRTTCLFLHLRT [S6A] | 2.4
82 | KPYTCCVCGKSFSRTTCLFLHLRT [S6C] | 1.71
83 | KPYTCDVCGKSFSRTTCLFLHLRT [S6D] | 2.28
84 | KPYTCEVCGKSFSRTTCLFLHLRT [S6E] | 1.85
85 | KPYTCFVCGKSFSRTTCLFLHLRT [S6F] | 2.08
86 | KPYTCGVCGKSFSRTTCLFLHLRT [S6G] | 2.48
87 | KPYTCHVCGKSFSRTTCLFLHLRT [S6H] | 2.15
88 | KPYTCIVCGKSFSRTTCLFLHLRT [S6I] | 1.41
89 | KPYTCKVCGKSFSRTTCLFLHLRT [S6K] | 2.46
90 | KPYTCLVCGKSFSRTTCLFLHLRT [S6L] | 1.93
91 | KPYTCMVCGKSFSRTTCLFLHLRT [S6M] | 1.63
92 | KPYTCNVCGKSFSRTTCLFLHLRT [S6N] | 2.39
93 | KPYTCPVCGKSFSRTTCLFLHLRT [S6P] | 2.25
94 | KPYTCQVCGKSFSRTTCLFLHLRT [S6Q] | 2.13
